Residue numbers refer to the chain shown, from its start.
Assays:
Test in all cases: pull-down
6H–hTFIIEα S365E = target: T1, 6H–hTFIIEα S365E (human, UniProt P29083 1-439, S365E)
T1 sequence: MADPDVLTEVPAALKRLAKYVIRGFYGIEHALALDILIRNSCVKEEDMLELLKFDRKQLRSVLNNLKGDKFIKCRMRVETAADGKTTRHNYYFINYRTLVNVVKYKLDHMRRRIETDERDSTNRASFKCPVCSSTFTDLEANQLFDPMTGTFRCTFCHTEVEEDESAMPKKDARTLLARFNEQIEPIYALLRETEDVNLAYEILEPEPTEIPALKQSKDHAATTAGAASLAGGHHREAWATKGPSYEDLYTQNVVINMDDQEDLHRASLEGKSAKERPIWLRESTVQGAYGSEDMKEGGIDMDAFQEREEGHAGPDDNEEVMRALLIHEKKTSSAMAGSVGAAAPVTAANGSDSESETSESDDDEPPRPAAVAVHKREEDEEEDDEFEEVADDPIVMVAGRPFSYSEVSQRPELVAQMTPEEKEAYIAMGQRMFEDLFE

6H–hTFIIEα V390A = target: T2, 6H–hTFIIEα V390A (human, UniProt P29083 1-439, V390A)
T2 sequence: T1 sequence with E365S, V390A

6H–hTFIIEα V372A = target: T3, 6H–hTFIIEα V372A (human, UniProt P29083 1-439, V372A)
T3 sequence: T1 sequence with E365S, V372A

6H–hTFIIEα E383A = target: T4, 6H–hTFIIEα E383A (human, UniProt P29083 1-439, E383A)
T4 sequence: T1 sequence with E365S, E383A

6H–hTFIIEα S365A = target: T5, 6H–hTFIIEα S365A (human, UniProt P29083 1-439, S365A)
T5 sequence: T1 sequence with E365A

Measured: binding result

B1: GST-tagged hTFIIEβ (natural protein)
chain: MDPSLLRERELFKKRALSTPVVEKRSASSESSSSSSKKKKTKVEHGGSSGSKQNSDHSNGSFNLKALSGSSGYKFGVLAKIVNYMKTRHQRGDTHPLTLDEILDETQHLDIGLKQKQWLMTEALVNNPKIEVIDGKYAFKPKYNVRDKKALLRLLDQHDQRGLGGILLEDIEEALPNSQKAVKALGDQILFVNRPDKKKILFFNDKSCQFSVDEEFQKLWRSVTVDSMDEEKIEEYLKRQGISSMQESGPKKVAPIQRRKKPASQKKRRFKTHNEHLAGVLKDYSDITSSK
binds: all assays above
